# Experimental data taken from the RNAGym collection of RNA variant scans (doi:10.1093/molbev/msab373).
# B1: Azoarcus group I ribozyme (parent)
# chain: GUGCCUUGCGCCGGGAAACCACGCAAGGGAUGGUGUCAAAUUCGGCGAAACCUAAGCGCCCGCCCGGGCGUAUGGCAACGCCGAGCCAAGCUUCGGCGCCUGCGCCGAUGAAGGUGUAGAGACUAGACGGCACCCACCUAAGGCAAACGCUAUGGUGAAGGCAUAGUCCAGGGAGUGGCGAAAGUCACACAAACCGG
# Variants of: B1
# Assay: reverse-splicing fitness (ratio to wild type); higher = more active; in vitro selection; Mg2+ level not given
# Summary of the method: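 An in vitro group I ribozyme library with randomized positions was T7-transcribed and gel-purified. In triplicate, 10 pmol RNA in EPPS pH 7.5 was reacted with 50 pmoles of a 30-nt RNA substrate for 1 h at 37 °C across several added MgCl2 levels (1–48 mM), then stopped with EDTA. Products were reverse transcribed from a substrate-complementary primer, PCR-amplified and sequenced (HiSeq 4000). Fitness is a variant's read proportion after selection over that before, normalised to wild type.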
row,Variant,reverse-splicing fitness
1,GUGCCUUGCGCCGGGAAACCACGCAAGGGAUGGUGUCAAAUUCGGCGAAACCUAAGCGCCCGCCCGGGCGUAUGGCAACGCAGAGCCAAGCUUCGGCGCCUGCGCCGAUGCAGGUGUAGCGACUAGACGGCACCCACCUAAGGCGAACGAUAUGGUGAAGGCAUAGUCCAGGGAGUGGCGAAAGUCACACAAACCGG,0.0108
2,GUGCCUUGCGCCGGGAAACCACGCAAGGGAUGGUGUCAAAUUCGGCGAAACCUAAGCGCCCGCCCGGGCGUAUGGCAACGCAGAGCCAAGCUUCGGCGCCUGCGCCGAUGCAGGUGUAGCGACUAGACGGCACCCACCUAAGGCGAACGGUAUGGUGAAGGCAUAGUCCAGGGAGUGGCGAAAGUCACACAAACCGG,0.00852
3,GUGCCUUGCGCCGGGAAACCACGCAAGGGAUGGUGUCAAAUUCGGCGAAACCUAAGCGCCCGCCCGGGCGUAUGGCAACGCAGAGCCAAGCUUCGGCGCCUGCGCCGAUGCAGGUGUAGCGACUAGACGGCACCCACCUAAGGCGAACGAUAUGGUGAAGGCAUAGUCGAGGGAGUGGCGAAAGUCACACAAACCGG,0.00833
4,GUGCCUUGCGCCGGGAAACCACGCAAGGGAUGGUGUCAAAUUCGGCGAAACCUAAGCGCCCGCCCGGGCGUAUGGCAACGCAGAGCCAAGCUUCGGCGCCUGCGCCGAUGCAGGUGUAGCGACUAGACGGCACCCACCUAAGGCGAACGAUAUGGUGAAGGCAUAGUCAAGGGAGUGGCGAAAGUCACACAAACCGG,0.0106
5,GUGCCUUGCGCCGGGAAACCACGCAAGGGAUGGUGUCAAAUUCGGCGAAACCUAAGCGCCCGCCCGGGCGUAUGGCAACGCAGAGCCAAGCUUCGGCGCCUGCGCCGAUGCAGGUGUAGCGACUAGACGGCACCCACCUAAGGCGAACGAUAUGGUGAAGGCAUAGUCUAGGGAGUGGCGAAAGUCACACAAACCGG,0.00994
6,GUGCCUUGCGCCGGGAAACCACGCAAGGGAUGGUGUCAAAUUCGGCGAAACCUAAGCGCCCGCCCGGGCGUAUGGCAACGCAGAGCCAAGCUUCGGCGCCUGCGCCGAUGCAGGUGUAGCGACUAGACGGCACCCACCUAAGGCCAACGCUAUGGUGAAGGCAUAGUCUAGGGAGUGGCGAAAGUCACACAAACCGG,0.0116
7,GUGCCUUGCGCCGGGAAACCACGCAAGGGAUGGUGUCAAAUUCGGCGAAACCUAAGCGCCCGCCCGGGCGUAUGGCAACGCAGAGCCAAGCUUCGGCGCCUGCGCCGAUGCAGGUGUAGCGACUAGACGGCACCCACCUAAGGCGAACGAUAUGGUGAAGGCAUAGUCUAGGGAGAGGCGAAAGUCACACAAACCGG,0.0154
8,GUGCCUUGCGCCGGGAAACCACGCAAGGGAUGGUGUCAAAUUCGGCGAAACCUAAGCGCCCGCCCGGGCGUAUGGCAACGCAGAGCCAAGCUUCGGCGCCUGCGCCGAUGCAGGUGUAGCGACUAGACGGCACCCACCUAAGGCGAACGAUAUGGUGAAGGCAUAGUCUAGGGAGCGGCGAAAGUCACACAAACCGG,0.0136
9,GUGCCUUGCGCCGGGAAACCACGCAAGGGAUGGUGUCAAAUUCGGCGAAACCUAAGCGCCCGCCCGGGCGUAUGGCAACGCAGAGCCAAGCUUCGGCGCCUGCGCCGAUGCAGGUGUAGCGACUAGACGGCACCCACCUAAGGCGAACGAUAUGGUGAAGGCAUAGUCUAGGGAGGGGCGAAAGUCACACAAACCGG,0.00795
10,GUGCCUUGCGCCGGGAAACCACGCAAGGGAUGGUGUCAAAUUCGGCGAAACCUAAGCGCCCGCCCGGGCGUAUGGCAACGCAGAGCCAAGCUUCGGCGCCUGCGCCGAUGCAGGUGUAGCGACUAGACGGCACCCACCUAAGGCCAACGCUAUGGUGAAGGCAUAGUCCAGGGAGCGGCGAAAGUCACACAAACCGG,0.0149
11,GUGCCUUGCGCCGGGAAACCACGCAAGGGAUGGUGUCAAAUUCGGCGAAACCUAAGCGCCCGCCCGGGCGUAUGGCAACGCAGAGCCAAGCUUCGGCGCCUGCGCCGAUGCAGGUGUAGCGACUAGACGGCACCCACCUAAGGCCAACGCUAUGGUGAAGGCAUAGUCCAGGGAGAGGCGAAAGUCACACAAACCGG,0.0123
12,GUGCCUUGCGCCGGGAAACCACGCAAGGGAUGGUGUCAAAUUCGGCGAAACCUAAGCGCCCGCCCGGGCGUAUGGCAACGCAGAGCCAAGCUUCGGCGCCUGCGCCGAUGCAGGUGUAGCGACUAGACGGCACCCACCUAAGGCCAACGCUAUGGUGAAGGCAUAGUCCAGGGAGGGGCGAAAGUCACACAAACCGG,0.00663
13,GUGCCUUGCGCCGGGAAACCACGCAAGGGAUGGUGUCAAAUUCGGCGAAACCUAAGCGCCCGCCCGGGCGUAUGGCAACGCAGAGCCAAGCUUCGGCGCCUGCGCCGAUGCAGGUGUAGCGACUAGACGGCACCCACCUAAGGCGAACGAUAUGGUGAAGGCAUAGUCCAGGGAGAGGCGAAAGUCACACAAACCGG,0.00956
14,GUGCCUUGCGCCGGGAAACCACGCAAGGGAUGGUGUCAAAUUCGGCGAAACCUAAGCGCCCGCCCGGGCGUAUGGCAACGCAGAGCCAAGCUUCGGCGCCUGCGCCGAUGCAGGUGUAGCGACUAGACGGCACCCACCUAAGGCGAACGAUAUGGUGAAGGCAUAGUCCAGGGAGCGGCGAAAGUCACACAAACCGG,0.0232
15,GUGCCUUGCGCCGGGAAACCACGCAAGGGAUGGUGUCAAAUUCGGCGAAACCUAAGCGCCCGCCCGGGCGUAUGGCAACGCAGAGCCAAGCUUCGGCGCCUGCGCCGAUGCAGGUGUAGCGACUAGACGGCACCCACCUAAGGCGAACGAUAUGGUGAAGGCAUAGUCCAGGGAGGGGCGAAAGUCACACAAACCGG,0.00865
16,GUGCCUUGCGCCGGGAAACCACGCAAGGGAUGGUGUCAAAUUCGGCGAAACCUAAGCGCCCGCCCGGGCGUAUGGCAACGCAGAGCCAAGCUUCGGCGCCUGCGCCGAUGCAGGUGUAGCGACUAGACGGCACCCACCUAAGGCGAACGGUAUGGUGAAGGCAUAGUCAAGGGAGUGGCGAAAGUCACACAAACCGG,0.00894
17,GUGCCUUGCGCCGGGAAACCACGCAAGGGAUGGUGUCAAAUUCGGCGAAACCUAAGCGCCCGCCCGGGCGUAUGGCAACGCAGAGCCAAGCUUCGGCGCCUGCGCCGAUGCAGGUGUAGCGACUAGACGGCACCCACCUAAGGCGAACGGUAUGGUGAAGGCAUAGUCGAGGGAGUGGCGAAAGUCACACAAACCGG,0.00793
18,GUGCCUUGCGCCGGGAAACCACGCAAGGGAUGGUGUCAAAUUCGGCGAAACCUAAGCGCCCGCCCGGGCGUAUGGCAACGCAGAGCCAAGCUUCGGCGCCUGCGCCGAUGCAGGUGUAGCGACUAGACGGCACCCACCUAAGGCCAACGCUAUGGUGAAGGCAUAGUCUAGGGAGCGGCGAAAGUCACACAAACCGG,0.0141
19,GUGCCUUGCGCCGGGAAACCACGCAAGGGAUGGUGUCAAAUUCGGCGAAACCUAAGCGCCCGCCCGGGCGUAUGGCAACGCAGAGCCAAGCUUCGGCGCCUGCGCCGAUGCAGGUGUAGCGACUAGACGGCACCCACCUAAGGCCAACGCUAUGGUGAAGGCAUAGUCUAGGGAGGGGCGAAAGUCACACAAACCGG,0.00595
20,GUGCCUUGCGCCGGGAAACCACGCAAGGGAUGGUGUCAAAUUCGGCGAAACCUAAGCGCCCGCCCGGGCGUAUGGCAACGCAGAGCCAAGCUUCGGCGCCUGCGCCGAUGCAGGUGUAGCGACUAGACGGCACCCACCUAAGGCCAACGCUAUGGUGAAGGCAUAGUCUAGGGAGAGGCGAAAGUCACACAAACCGG,0.0123
21,GUGCCUUGCGCCGGGAAACCACGCAAGGGAUGGUGUCAAAUUCGGCGAAACCUAAGCGCCCGCCCGGGCGUAUGGCAACGCAGAGCCAAGCUUCGGCGCCUGCGCCGAUGCAGGUGUAGCGACUAGACGGCACCCACCUAAGGCGAACGAUAUGGUGAAGGCAUAGUCAAGGGAGCGGCGAAAGUCACACAAACCGG,0.019
22,GUGCCUUGCGCCGGGAAACCACGCAAGGGAUGGUGUCAAAUUCGGCGAAACCUAAGCGCCCGCCCGGGCGUAUGGCAACGCAGAGCCAAGCUUCGGCGCCUGCGCCGAUGCAGGUGUAGCGACUAGACGGCACCCACCUAAGGCGAACGAUAUGGUGAAGGCAUAGUCAAGGGAGAGGCGAAAGUCACACAAACCGG,0.0209
23,GUGCCUUGCGCCGGGAAACCACGCAAGGGAUGGUGUCAAAUUCGGCGAAACCUAAGCGCCCGCCCGGGCGUAUGGCAACGCAGAGCCAAGCUUCGGCGCCUGCGCCGAUGCAGGUGUAGCGACUAGACGGCACCCACCUAAGGCGAACGAUAUGGUGAAGGCAUAGUCAAGGGAGGGGCGAAAGUCACACAAACCGG,0.009
24,GUGCCUUGCGCCGGGAAACCACGCAAGGGAUGGUGUCAAAUUCGGCGAAACCUAAGCGCCCGCCCGGGCGUAUGGCAACGCAGAGCCAAGCUUCGGCGCCUGCGCCGAUGCAGGUGUAGCGACUAGACGGCACCCACCUAAGGCGAACGGUAUGGUGAAGGCAUAGUCAAGGGAGAGGCGAAAGUCACACAAACCGG,0.0153
25,GUGCCUUGCGCCGGGAAACCACGCAAGGGAUGGUGUCAAAUUCGGCGAAACCUAAGCGCCCGCCCGGGCGUAUGGCAACGCAGAGCCAAGCUUCGGCGCCUGCGCCGAUGCAGGUGUAGCGACUAGACGGCACCCACCUAAGGCGAACGGUAUGGUGAAGGCAUAGUCAAGGGAGGGGCGAAAGUCACACAAACCGG,0.00798
26,GUGCCUUGCGCCGGGAAACCACGCAAGGGAUGGUGUCAAAUUCGGCGAAACCUAAGCGCCCGCCCGGGCGUAUGGCAACGCAGAGCCAAGCUUCGGCGCCUGCGCCGAUGCAGGUGUAGCGACUAGACGGCACCCACCUAAGGCGAACGGUAUGGUGAAGGCAUAGUCAAGGGAGCGGCGAAAGUCACACAAACCGG,0.0121
27,GUGCCUUGCGCCGGGAAACCACGCAAGGGAUGGUGUCAAAUUCGGCGAAACCUAAGCGCCCGCCCGGGCGUAUGGCAACGCAGAGCCAAGCUUCGGCGCCUGCGCCGAUGCAGGUGUAGCGACUAGACGGCACCCACCUAAGGCGAACGAUAUGGUGAAGGCAUAGUCGAGGGAGGGGCGAAAGUCACACAAACCGG,0.00821
28,GUGCCUUGCGCCGGGAAACCACGCAAGGGAUGGUGUCAAAUUCGGCGAAACCUAAGCGCCCGCCCGGGCGUAUGGCAACGCAGAGCCAAGCUUCGGCGCCUGCGCCGAUGCAGGUGUAGCGACUAGACGGCACCCACCUAAGGCGAACGAUAUGGUGAAGGCAUAGUCGAGGGAGCGGCGAAAGUCACACAAACCGG,0.0238
29,GUGCCUUGCGCCGGGAAACCACGCAAGGGAUGGUGUCAAAUUCGGCGAAACCUAAGCGCCCGCCCGGGCGUAUGGCAACGCAGAGCCAAGCUUCGGCGCCUGCGCCGAUGCAGGUGUAGCGACUAGACGGCACCCACCUAAGGCGAACGAUAUGGUGAAGGCAUAGUCGAGGGAGAGGCGAAAGUCACACAAACCGG,0.0172
30,GUGCCUUGCGCCGGGAAACCACGCAAGGGAUGGUGUCAAAUUCGGCGAAACCUAAGCGCCCGCCCGGGCGUAUGGCAACGCAGAGCCAAGCUUCGGCGCCUGCGCCGAUGCAGGUGUAGCGACUAGACGGCACCCACCUAAGGCGAACGCUAUGGUGAAGGCAUAGUCCAGGGAGUGGCGAAAGUCACACAAACCGG,0.0258
